These results are taken from US20190169261A1 (published 2019).

For experiment [1], the target named is T1, PRAME peptide on HLA-A*02:01 (human).
T1 peptide: VLDGLDVLL
Nature of the experiment: multimer staining.

The target of experiment [2] is T2, PRAME peptide on HLA-A*02:01 (human).
T2 peptide: SLLQHLIGL
Put plainly: killing.

B1: TCR T4.8-1-29 (TCR, V domains shown)
Valpha: EDQVTQSPEALRLQEGESSSLNCSYTVSGLRGLFWYRQDPGKGPEFLFTLYSAGEEKEKERLKATLTKKESFLHITAPKPEDSATYLCAVHSTAQAGTALIFGKGTTLSVSS
Vbeta: DSGVTQTPKHLITATGQRVTLRCSPRSGDLSVYWYQQSLDQGLQFLIQYYNGEERAKGNILERFSAQQFPDLHSELNLSSLELGDSALYFCASSTHRGQTNYGYTFGSGTRLTVV
In the case of B1, the values for the binding result in experiment [1] and in experiment [2] were “recognises” and “no recognition”, respectively.
